How the values were obtained:
[1] = target: T1, eGFP-53BP1 (wild-type TP53-binding protein 1 tagged with enhanced green fluorescent protein), Q12888; assay: cross-pair correlation function (cross-pCF) analysis, two-colour fluorescence cross-correlation; two-channel line scans in live DIvA cells co-transfected with eGFP- and mKate2-tagged copies of the same 53BP1 construct, treated with 4OHT for 60 min; dimer fraction from cross pCF0 against pCF0, corrected for spectral bleed through; conditions: remark: other sources report otherwise
T1 chain: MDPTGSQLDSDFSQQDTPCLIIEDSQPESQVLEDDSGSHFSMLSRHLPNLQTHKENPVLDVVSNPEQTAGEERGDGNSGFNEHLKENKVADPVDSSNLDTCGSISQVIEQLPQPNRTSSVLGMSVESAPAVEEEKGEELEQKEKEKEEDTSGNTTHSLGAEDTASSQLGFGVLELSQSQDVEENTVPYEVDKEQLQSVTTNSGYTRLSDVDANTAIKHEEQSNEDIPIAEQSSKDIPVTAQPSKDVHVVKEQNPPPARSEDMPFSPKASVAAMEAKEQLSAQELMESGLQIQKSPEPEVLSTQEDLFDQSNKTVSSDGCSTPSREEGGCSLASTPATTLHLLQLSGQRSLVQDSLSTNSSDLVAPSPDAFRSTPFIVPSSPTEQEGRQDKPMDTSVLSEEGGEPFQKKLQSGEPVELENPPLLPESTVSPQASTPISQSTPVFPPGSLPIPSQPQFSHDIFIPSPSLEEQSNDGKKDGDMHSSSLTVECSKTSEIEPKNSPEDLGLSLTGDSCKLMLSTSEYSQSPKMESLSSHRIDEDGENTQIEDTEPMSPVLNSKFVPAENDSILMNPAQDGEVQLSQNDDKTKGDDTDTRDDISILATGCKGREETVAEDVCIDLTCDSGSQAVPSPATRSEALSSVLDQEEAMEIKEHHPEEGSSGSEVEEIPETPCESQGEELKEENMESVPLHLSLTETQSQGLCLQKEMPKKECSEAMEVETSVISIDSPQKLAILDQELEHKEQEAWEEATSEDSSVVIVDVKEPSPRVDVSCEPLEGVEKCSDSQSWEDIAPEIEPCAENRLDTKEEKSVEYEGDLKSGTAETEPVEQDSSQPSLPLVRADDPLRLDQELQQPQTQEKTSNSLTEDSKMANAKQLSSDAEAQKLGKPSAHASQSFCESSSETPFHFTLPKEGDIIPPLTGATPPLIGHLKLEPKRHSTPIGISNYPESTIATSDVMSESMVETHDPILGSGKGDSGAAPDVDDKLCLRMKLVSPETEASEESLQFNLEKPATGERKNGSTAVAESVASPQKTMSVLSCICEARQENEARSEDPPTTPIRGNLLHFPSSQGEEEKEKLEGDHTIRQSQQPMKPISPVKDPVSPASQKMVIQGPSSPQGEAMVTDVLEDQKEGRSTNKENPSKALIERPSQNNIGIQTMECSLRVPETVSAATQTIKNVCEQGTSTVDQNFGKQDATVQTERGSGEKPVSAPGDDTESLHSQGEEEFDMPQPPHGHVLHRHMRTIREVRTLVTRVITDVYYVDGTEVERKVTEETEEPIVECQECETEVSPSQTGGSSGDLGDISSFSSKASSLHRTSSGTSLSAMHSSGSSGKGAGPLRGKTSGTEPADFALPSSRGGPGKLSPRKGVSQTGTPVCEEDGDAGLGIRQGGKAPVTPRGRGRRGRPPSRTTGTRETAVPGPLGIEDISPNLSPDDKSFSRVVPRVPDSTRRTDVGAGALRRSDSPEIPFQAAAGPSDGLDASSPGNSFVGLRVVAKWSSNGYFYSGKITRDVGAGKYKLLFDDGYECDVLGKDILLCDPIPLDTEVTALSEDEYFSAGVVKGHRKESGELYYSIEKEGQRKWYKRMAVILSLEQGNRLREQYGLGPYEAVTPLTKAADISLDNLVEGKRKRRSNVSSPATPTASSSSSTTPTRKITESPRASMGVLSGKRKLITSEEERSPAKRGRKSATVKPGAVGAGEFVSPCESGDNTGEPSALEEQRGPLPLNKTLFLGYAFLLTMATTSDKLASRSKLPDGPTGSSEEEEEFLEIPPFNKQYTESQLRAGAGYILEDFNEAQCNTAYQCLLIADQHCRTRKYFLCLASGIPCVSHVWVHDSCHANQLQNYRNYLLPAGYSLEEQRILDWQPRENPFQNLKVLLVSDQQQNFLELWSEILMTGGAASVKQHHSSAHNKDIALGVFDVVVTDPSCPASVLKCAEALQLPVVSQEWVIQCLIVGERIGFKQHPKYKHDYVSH

[2] = target: T1, eGFP-53BP1 (wild-type TP53-binding …); assay: Number and Brightness (NB) analysis of fluorescence fluctuation spectroscopy; frame scans in nuclei of live DIvA cells expressing eGFP-tagged 53BP1 constructs, 37 °C, brightness windows calibrated on free eGFP (B monomer 1.15, dimer 1.30, oligomer >1.60); before and 30-60 min after 4OHT induction of DSBs; also after knockdown of endogenous 53BP1; conditions: remark: other sources report otherwise

B1: eGFP-53BP1 (wild-type TP53-binding protein 1 tagged with enhanced green fluorescent protein), Q12888 1-1972 (natural protein)
chain: T1 chain
[1]
  fraction of 53BP1 dimer (cross pCF0 against pCF0): 31%
[2]
  fraction of dimer (NB, percent of pixels): 26%
  fraction of oligomer (NB, percent of pixels): 2%
  stoichiometry N: 2
